What was measured:
[1] = target: T1, CD3 antigen on primary human T cells (human, UniProt P07766 23-207; P04234 22-171; P09693 23-182); experiment: flow cytometry on CD38-minus primary human T cells
T1 construct: CD3 is a multi-chain complex; also called CD3-expressing T cells; CD3-expressing CD38-minus T cells

[2] = target: T2, CD38 expressed on human tumor cell lines (RPMI8226, MM1.R and other CD38(+) lines) (human, UniProt P28907 1-300); experiment: cell-based or functional assay
[3] = target: T2, CD38 expressed on human tumor cell …; experiment: cell-based or functional assay; remark: listed apart in the source
[4] = target: T3, BCMA expressed on MM1.R myeloma cells (UniProt Q02223 1-184); experiment: cell-based or functional assay
T3 sequence (looked up): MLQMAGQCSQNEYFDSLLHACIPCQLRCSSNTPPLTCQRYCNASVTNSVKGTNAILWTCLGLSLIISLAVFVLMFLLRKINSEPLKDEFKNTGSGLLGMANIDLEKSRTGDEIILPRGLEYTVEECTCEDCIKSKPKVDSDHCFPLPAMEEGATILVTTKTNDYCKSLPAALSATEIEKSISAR

[5] = target: T4, BCMA target antigen (Acro Biosystems catalog # BCA-H522g) (UniProt Q02223 1-54); experiment: SPR Biacore, antibody captured by anti-Fc, antigen as analyte, 1:1 model
T4 construct: range 1-54; Bought protein; also called BMCA target antigen; BCMA antigen
T4 sequence (looked up): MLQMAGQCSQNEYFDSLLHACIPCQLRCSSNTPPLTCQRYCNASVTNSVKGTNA

[6] = target: T1, CD3 antigen on primary human T cells; experiment: flow cytometry on freshly isolated primary human T cells, anti-human Fc-APC secondary, GeoMean RL1-H of singlets
[7] = target: T1, CD3 antigen on primary human T cells; experiment: as above; remark: listed apart in the source
[8] = target: T1, CD3 antigen on primary human T cells; experiment: flow cytometry on CD38-minus primary human T cells, anti-human Fc-APC secondary, GeoMean RL1-H of singlets

B1: Kv6.2 (7GS) CD38/CD3 two-chain non-tandem bispecific antibody with non-cleavable GS second linker (bispecific antibody)
heavy: QVQLVESGGGLVKPGGSLRLSCAASGFTFSDDYMSWIRQAPGKGLEWVASVSNGRPTTYYADSVRGRFTISRDNAKNSLYLQMNSLRAEDTAVYYCAREGWSGEFTDWGQGTLVTVSSASTKGPSVFPLAPSSKSTSGGTAALGCLVKDYFPEPVTVSWNSGALTSGVHTFPAVLQSSGLYSLSSVVTVPSSSLGTQTYICNVNHKPSNTKVDKRVEPKSSDKTHTCPPCPAPEAAGGPSVFLFPPKPKDTLMISRTPEVTCVVVDVSHEDPEVKFNWYVDGVEVHNAKTKPREEQYNSTYRVVSVLTVLHQDWLNGKEYKCKVSNKALPAPIEKTISKAKGQPREPQVYTLPPSREEMTKNQVSLSCAVKGFYPSDIAVEWESNGQPENNYKTTPPVLDSDGSFFLVSKLTVDKSRWQQGNVFSCSVMHEALHNHYTQKSLSLSPGKGSGGSSGGGSGGGGSQVQLVQSGAEVKKPGASVKVSCKASGYTFISYTMHWVRQAPGQGLEWMGYINPRSGYTHYNQKLKDKATLTADKSASTAYMELSSLRSEDTAVYYCARSAYYDYDGFAYWGQGTLVTVSSASTKGPSVFPLAPSSKSTSGGTAALGCLVKDYFPEPVTVSWNSGALTSGVHTFPAVLQSSGLYSLSSVVTVPSSSLGTQTYICNVNHKPSNTKVDKRVEPKSC
light: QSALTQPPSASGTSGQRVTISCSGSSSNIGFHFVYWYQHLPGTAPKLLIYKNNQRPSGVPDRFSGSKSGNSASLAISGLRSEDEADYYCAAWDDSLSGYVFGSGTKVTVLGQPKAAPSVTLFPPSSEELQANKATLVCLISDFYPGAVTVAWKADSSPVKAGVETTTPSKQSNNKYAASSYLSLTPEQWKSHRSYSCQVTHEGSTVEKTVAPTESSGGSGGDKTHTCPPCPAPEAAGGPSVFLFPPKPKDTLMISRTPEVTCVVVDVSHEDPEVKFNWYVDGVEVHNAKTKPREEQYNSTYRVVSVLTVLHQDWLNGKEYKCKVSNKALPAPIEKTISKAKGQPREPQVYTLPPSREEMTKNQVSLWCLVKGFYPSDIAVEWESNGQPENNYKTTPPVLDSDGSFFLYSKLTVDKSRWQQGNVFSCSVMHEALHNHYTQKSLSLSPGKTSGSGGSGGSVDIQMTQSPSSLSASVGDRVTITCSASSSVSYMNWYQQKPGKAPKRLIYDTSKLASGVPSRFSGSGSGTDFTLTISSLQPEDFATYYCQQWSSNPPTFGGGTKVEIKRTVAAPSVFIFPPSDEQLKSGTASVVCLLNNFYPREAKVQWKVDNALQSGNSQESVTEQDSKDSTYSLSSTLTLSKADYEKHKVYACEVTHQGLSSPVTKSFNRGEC
notes: also called control non-cleavable bispecific antibody having a non-tandem structure (Kv6.2)
[1]
  fold reduction of binding to CD3: > 1000 fold

B2: Kv5.1 CD38/CD3 three-chain in-tandem bispecific antibody (bispecific antibody)
chain 1: QVQLVESGGGLVKPGGSLRLSCAASGFTFSDDYMSWIRQAPGKGLEWVASVSNGRPTTYYADSVRGRFTISRDNAKNSLYLQMNSLRAEDTAVYYCAREGWSGEFTDWGQGTLVTVSSASTKGPSVFPLAPSSKSTSGGTAALGCLVKDYFPEPVTVSWNSGALTSGVHTFPAVLQSSGLYSLSSVVTVPSSSLGTQTYICNVNHKPSNTKVDKRVEPKSCGGSGSGSGGSSGGGSGGGGSQVQLVQSGAEVKKPGASVKVSCKASGYTFISYTMHWVRQAPGQGLEWMGYINPRSGYTHYNQKLKDKATLTADKSASTAYMELSSLRSEDTAVYYCARSAYYDYDGFAYWGQGTLVTVSSASTKGPSVFPLAPSSKSTSGGTAALGCLVKDYFPEPVTVSWNSGALTSGVHTFPAVLQSSGLYSLSSVVTVPSSSLGTQTYICNVNHKPSNTKVDKRVEPKSSDKTHTCPPCPAPEAAGGPSVFLFPPKPKDTLMISRTPEVTCVVVDVSHEDPEVKFNWYVDGVEVHNAKTKPREEQYNSTYRVVSVLTVLHQDWLNGKEYKCKVSNKALPAPIEKTISKAKGQPREPQVYTLPPSREEMTKNQVSLSCAVKGFYPSDIAVEWESNGQPENNYKTTPPVLDSDGSFFLVSKLTVDKSRWQQGNVFSCSVMHEALHNHYTQKSLSLSPGK
chain 2: not shown
chain 3: DIQMTQSPSSLSASVGDRVTITCSASSSVSYMNWYQQKPGKAPKRLIYDTSKLASGVPSRFSGSGSGTDFTLTISSLQPEDFATYYCQQWSSNPPTFGGGTKVEIKRTVAAPSVFIFPPSDEQLKSGTASVVCLLNNFYPREAKVQWKVDNALQSGNSQESVTEQDSKDSTYSLSSTLTLSKADYEKHKVYACEVTHQGLSSPVTKSFNRGESGGSGGDKTHTCPPCPAPEAAGGPSVFLFPPKPKDTLMISRTPEVTCVVVDVSHEDPEVKFNWYVDGVEVHNAKTKPREEQYNSTYRVVSVLTVLHQDWLNGKEYKCKVSNKALPAPIEKTISKAKGQPREPQVYTLPPSREEMTKNQVSLWCLVKGFYPSDIAVEWESNGQPENNYKTTPPVLDSDGSFFLYSKLTVDKSRWQQGNVFSCSVMHEALHNHYTQKSLSLSPGK
[2]
  IC50 pM, TAA-dependent cytotoxicity towards RPMI8226 cells: 4.2 pM
[3]
  IC50 pM, TAA-dependent cytotoxicity (MM1.R target cells by the text): 3 pM

B3: Kv6.1 (7GS) CD38/CD3 two-chain in-tandem bispecific antibody with non-cleavable GS second linker (bispecific antibody)
heavy: QVQLVESGGGLVKPGGSLRLSCAASGFTFSDDYMSWIRQAPGKGLEWVASVSNGRPTTYYADSVRGRFTISRDNAKNSLYLQMNSLRAEDTAVYYCAREGWSGEFTDWGQGTLVTVSSASTKGPSVFPLAPSSKSTSGGTAALGCLVKDYFPEPVTVSWNSGALTSGVHTFPAVLQSSGLYSLSSVVTVPSSSLGTQTYICNVNHKPSNTKVDKRVEPKSCGGSGSGSGGSSGGGSGGGGSQVQLVQSGAEVKKPGASVKVSCKASGYTFISYTMHWVRQAPGQGLEWMGYINPRSGYTHYNQKLKDKATLTADKSASTAYMELSSLRSEDTAVYYCARSAYYDYDGFAYWGQGTLVTVSSASTKGPSVFPLAPSSKSTSGGTAALGCLVKDYFPEPVTVSWNSGALTSGVHTFPAVLQSSGLYSLSSVVTVPSSSLGTQTYICNVNHKPSNTKVDKRVEPKSSDKTHTCPPCPAPEAAGGPSVFLFPPKPKDTLMISRTPEVTCVVVDVSHEDPEVKFNWYVDGVEVHNAKTKPREEQYNSTYRVVSVLTVLHQDWLNGKEYKCKVSNKALPAPIEKTISKAKGQPREPQVYTLPPSREEMTKNQVSLSCAVKGFYPSDIAVEWESNGQPENNYKTTPPVLDSDGSFFLVSKLTVDKSRWQQGNVFSCSVMHEALHNHYTQKSLSLSPGK
light: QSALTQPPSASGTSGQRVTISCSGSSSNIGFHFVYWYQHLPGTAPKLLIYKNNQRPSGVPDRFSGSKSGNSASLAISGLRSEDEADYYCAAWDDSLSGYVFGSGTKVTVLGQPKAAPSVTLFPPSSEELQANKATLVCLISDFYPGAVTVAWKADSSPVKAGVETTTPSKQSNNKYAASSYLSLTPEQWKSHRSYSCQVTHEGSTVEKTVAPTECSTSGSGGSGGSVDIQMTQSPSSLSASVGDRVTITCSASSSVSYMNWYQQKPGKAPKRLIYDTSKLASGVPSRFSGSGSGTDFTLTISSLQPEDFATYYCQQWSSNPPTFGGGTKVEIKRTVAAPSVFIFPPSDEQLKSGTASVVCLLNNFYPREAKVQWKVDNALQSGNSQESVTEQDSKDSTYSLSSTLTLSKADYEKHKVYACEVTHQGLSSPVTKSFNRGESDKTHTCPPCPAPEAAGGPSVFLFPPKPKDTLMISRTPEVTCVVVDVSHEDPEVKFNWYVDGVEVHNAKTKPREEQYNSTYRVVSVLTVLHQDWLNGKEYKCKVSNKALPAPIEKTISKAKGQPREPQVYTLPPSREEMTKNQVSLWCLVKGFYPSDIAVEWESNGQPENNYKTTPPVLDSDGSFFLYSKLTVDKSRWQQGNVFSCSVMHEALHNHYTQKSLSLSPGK
notes: also called control non-cleavable bispecific antibody having an in-tandem structure (Kv6.1)
[1]
  fold reduction of binding to CD3: > 100 fold

B4: Kv4.33 BCMA/CD3 three-chain non-tandem bispecific antibody (bispecific antibody)
chain 1: EVQLVESGGGLVKPGGSLRLSCAASGFTSSTAWMSWVRQAPGKGLEWVGRIKSKSDGGTTDYAAPVKGRFTISRDDSKNTLFLQMNSLKTEDTAVYYCAKGGGTYGYWGQGTTVTVSSASTKGPSVFPLAPSSKSTSGGTAALGCLVKDYFPEPVTVSWNSGALTSGVHTFPAVLQSSGLYSLSSVVTVPSSSLGTQTYICNVNHKPSNTKVDKRVEPKSSDKTHTCPPCPAPEAAGGPSVFLFPPKPKDTLMISRTPEVTCVVVDVSHEDPEVKFNWYVDGVEVHNAKTKPREEQYNSTYRVVSVLTVLHQDWLNGKEYKCKVSNKALPAPIEKTISKAKGQPREPQVYTLPPSREEMTKNQVSLSCAVKGFYPSDIAVEWESNGQPENNYKTTPPVLDSDGSFFLVSKLTVDKSRWQQGNVFSCSVMHEALHNHYTQKSLSLSPGKGSGGSSGGGSGGGGSQVQLVQSGAEVKKPGASVKVSCKASGYTFISYTMHWVRQAPGQGLEWMGYINPRSGYTHYNQKLKDKATLTADKSASTAYMELSSLRSEDTAVYYCARSAYYDYDGFAYWGQGTLVTVSSASTKGPSVFPLAPSSKSTSGGTAALGCLVKDYFPEPVTVSWNSGALTSGVHTFPAVLQSSGLYSLSSVVTVPSSSLGTQTYICNVNHKPSNTKVDKRVEPKSC
chain 2: SYVLTQPASVSGSPGQSVTISCTGTSSAHGGHYYVSWYQQHPGKAPKLMIYDVSNRPSGVSNRFSGSKSGNTASLTISGLQAEDEADYYCGSYTSSGSYVFGTGTKLTVLGQPKAAPSVTLFPPSSEELQANKATLVCLISDFYPGAVTVAWKADSSPVKAGVETTTPSKQSNNKYAASSYLSLTPEQWKSHRSYSCQVTHEGSTVEKTVAPTESSGGSGGDKTHTCPPCPAPEAAGGPSVFLFPPKPKDTLMISRTPEVTCVVVDVSHEDPEVKFNWYVDGVEVHNAKTKPREEQYNSTYRVVSVLTVLHQDWLNGKEYKCKVSNKALPAPIEKTISKAKGQPREPQVYTLPPSREEMTKNQVSLWCLVKGFYPSDIAVEWESNGQPENNYKTTPPVLDSDGSFFLYSKLTVDKSRWQQGNVFSCSVMHEALHNHYTQKSLSLSPGK
chain 3: DIQMTQSPSSLSASVGDRVTITCSASSSVSYMNWYQQKPGKAPKRLIYDTSKLASGVPSRFSGSGSGTDFTLTISSLQPEDFATYYCQQWSSNPPTFGGGTKVEIKRTVAAPSVFIFPPSDEQLKSGTASVVCLLNNFYPREAKVQWKVDNALQSGNSQESVTEQDSKDSTYSLSSTLTLSKADYEKHKVYACEVTHQGLSSPVTKSFNRGEC
notes: also called Kv4.33 (3XGS) BCMA/CD3
[4]
  IC50 pM, TAA-dependent cytotoxicity (MM1.R target cells by the text): 134 pM
[5]
  Kd: 47.7 nM
  koff: 0.0364 s⁻¹
  kon: 762000 M⁻¹ s⁻¹
[6]
  EC50 (read off the curve): ~2 µg/mL
[7]
  EC50 (read off the curve): ~2 µg/mL

B5: Kv4.33 (4XGS) CD38/CD3 three-chain non-tandem bispecific antibody (bispecific antibody)
heavy: QVQLVESGGGLVKPGGSLRLSCAASGFTFSDDYMSWIRQAPGKGLEWVASVSNGRPTTYYADSVRGRFTISRDNAKNSLYLQMNSLRAEDTAVYYCAREGWSGEFTDWGQGTLVTVSSASTKGPSVFPLAPSSKSTSGGTAALGCLVKDYFPEPVTVSWNSGALTSGVHTFPAVLQSSGLYSLSSVVTVPSSSLGTQTYICNVNHKPSNTKVDKRVEPKSSDKTHTCPPCPAPEAAGGPSVFLFPPKPKDTLMISRTPEVTCVVVDVSHEDPEVKFNWYVDGVEVHNAKTKPREEQYNSTYRVVSVLTVLHQDWLNGKEYKCKVSNKALPAPIEKTISKAKGQPREPQVYTLPPSREEMTKNQVSLSCAVKGFYPSDIAVEWESNGQPENNYKTTPPVLDSDGSFFLVSKLTVDKSRWQQGNVFSCSVMHEALHNHYTQKSLSLSPGKGGSGSGSGGSSGGGSGGGGSQVQLVQSGAEVKKPGASVKVSCKASGYTFISYTMHWVRQAPGQGLEWMGYINPRSGYTHYNQKLKDKATLTADKSASTAYMELSSLRSEDTAVYYCARSAYYDYDGFAYWGQGTLVTVSSASTKGPSVFPLAPSSKSTSGGTAALGCLVKDYFPEPVTVSWNSGALTSGVHTFPAVLQSSGLYSLSSVVTVPSSSLGTQTYICNVNHKPSNTKVDKRVEPKSC
light 1: not shown
light 2: DIQMTQSPSSLSASVGDRVTITCSASSSVSYMNWYQQKPGKAPKRLIYDTSKLASGVPSRFSGSGSGTDFTLTISSLQPEDFATYYCQQWSSNPPTFGGGTKVEIKRTVAAPSVFIFPPSDEQLKSGTASVVCLLNNFYPREAKVQWKVDNALQSGNSQESVTEQDSKDSTYSLSSTLTLSKADYEKHKVYACEVTHQGLSSPVTKSFNRGEC
[8]
  EC50 (read off the curve): ~2 µg/mL

Source: patent US20220324974A1 (SORRENTO THERAPEUTICS, published 2022)
